Laboratory results from patent publication US20170128564A1, “P[…] FROM gp41, A VACCINE COMPOSITION COMPRISING SAID POLYPEPTIDE, AND USES FOR TREATING AN INFECTION BY AN HIV VIRUS IN AN INDIVIDUAL” (INSTITUT NATIONAL DE LA SANTE ET DE LA RECHERCHE MEDICALE …, priority 2003, published 2017).
No end group written: not given here.

What was measured:
CD4+ T cells = assay: NK cytotoxicity 51Cr-release assay, treated CD4+ T cells as targets of activated autologous purified NK cells; format: cell-based, human
Description: NK lines were generated from PBMC, and then purified using the StemSep cell separation system and the NK cell enrichment antibody cocktail (StemCell technologies). NK purified cells were cultured in MyeloCult H5100 medium (StemCell technologies) supplemented with 100 units rhlL-2 (Boheringer). The purity of these preparations was evaluated by flow cytometry after staining with anti-CD3 (BD), anti-CD56 (BD), anti-NKp44, and anti-NKp46 mAbs.
The cytololytic activity was assayed in 4-h ^51Cr-release assay as previously described. Briefly, the target cells were labeled for 2-h at 37° C. with 100 μCi per 10^6 cells Na^51Cr (Amersham), and washed twice with culture medium. The target cells were then distributed in round-bottomed 96-well microtiter plates (4×10^3 cells per well), and the effector cells were added at several E/T ratio. The plates were incubated 4-h at 37° C. The supernatant were then collected and ^51Cr-release was measured in a gamma counted. In experiments in which Abs were included, these were added to final concentration of 20 μg/ml. The relative specific ^51Cr-release was calculated as previously described. Values for spontaneous ^51Cr-release, which are deducted in the calculation, were between 10 and 20% of the total incorporated radioactivity. The results are presented after subtraction of the nonspecific lysis obtained with control targets. […]

[1] = tested on: NKp44L expression on purified CD4+ T cells; format: cell-based, human; settings: preliminary experiment with the 6-mers peptide
NKp44L = target: T1, NKp44L (Homo sapiens, UniProt Q8IZD2); assay: Staining of U2 cells with #7.1 mAb, flow cytometry, and competition with NCR-Ig fusion proteins; format: binding; settings: HIV-1-infected U2 cells previously stained with fusion protein (FIG. 8C)
T1 construct: endogenous in cells; host or cells: U2 cells, uninfected or chronically infected with HIV-1 Sf2
T1 sequence (Q8IZD2 1-1168 isoform Q8IZD2-8 K496E/T516A): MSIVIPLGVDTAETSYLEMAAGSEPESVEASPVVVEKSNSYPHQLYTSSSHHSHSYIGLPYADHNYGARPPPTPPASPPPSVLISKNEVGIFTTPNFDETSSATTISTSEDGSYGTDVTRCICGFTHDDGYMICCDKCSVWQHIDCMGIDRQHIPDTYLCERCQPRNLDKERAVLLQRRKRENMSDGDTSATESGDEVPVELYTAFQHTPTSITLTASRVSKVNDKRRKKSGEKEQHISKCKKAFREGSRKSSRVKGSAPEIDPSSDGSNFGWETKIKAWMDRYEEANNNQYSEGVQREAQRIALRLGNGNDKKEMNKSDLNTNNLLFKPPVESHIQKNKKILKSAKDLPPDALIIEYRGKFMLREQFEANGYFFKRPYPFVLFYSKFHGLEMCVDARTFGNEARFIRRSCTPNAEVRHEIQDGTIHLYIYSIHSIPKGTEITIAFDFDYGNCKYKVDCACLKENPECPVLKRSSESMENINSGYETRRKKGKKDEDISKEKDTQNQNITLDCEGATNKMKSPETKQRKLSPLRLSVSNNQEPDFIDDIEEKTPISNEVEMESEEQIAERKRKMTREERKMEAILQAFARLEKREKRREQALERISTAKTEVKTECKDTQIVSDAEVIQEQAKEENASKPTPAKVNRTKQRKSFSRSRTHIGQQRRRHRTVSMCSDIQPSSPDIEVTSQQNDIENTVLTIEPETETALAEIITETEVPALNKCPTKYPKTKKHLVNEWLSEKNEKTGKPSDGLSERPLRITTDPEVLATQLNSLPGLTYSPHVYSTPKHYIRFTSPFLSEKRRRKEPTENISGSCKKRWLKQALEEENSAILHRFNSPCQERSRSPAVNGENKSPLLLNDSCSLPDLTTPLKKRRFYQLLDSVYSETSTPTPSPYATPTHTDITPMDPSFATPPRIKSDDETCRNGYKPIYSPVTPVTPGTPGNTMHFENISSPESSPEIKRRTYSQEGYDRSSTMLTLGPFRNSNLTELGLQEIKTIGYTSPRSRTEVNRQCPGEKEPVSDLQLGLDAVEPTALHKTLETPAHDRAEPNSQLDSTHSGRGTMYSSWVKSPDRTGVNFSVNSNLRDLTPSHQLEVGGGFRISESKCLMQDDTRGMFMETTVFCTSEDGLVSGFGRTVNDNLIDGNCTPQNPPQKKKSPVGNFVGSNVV
Description: 8B) Cell surface expression of NKp44L detected with #7.1 mAb. Uninfected (UI) and HIV-1-infected (Sf2) U2 cells were incubated with 1 μg/ml of #7.1 mAb (black line) or with the IgM isotype control (dotted line) and analyzed by flow cytometry.
8C) #7.1 mAb inhibits NKp44-Ig binding. HIV-1-infected U2 cells that had previously been stained with either […] of NKp44-Ig fusion protein (lower panel; black line) or control NKp46-Ig fusion protein (upper panel; black line) were incubated with #7.1 mAb (gray line) or IgM isotype control (dotted line) for 1!h at 4° C. and washed twice in 1% PBS-BSA. The cells were then analyzed by flow cytometry. Percentage of cells expressing NKp44L, after NCR-Ig incubation, is noted.
Anti-NKp44 (44/8; IgG1) and anti-NKp44L mAb (#7.1; IgM) were obtained from 5-weekold BalB/c mice immunized with the ClonaCell-HY hybridoma cloning kit, according to the manufacturer's instructions (StemCell Technologies Inc.). The anti-mouse-peroxidase hybridoma screening reagent (Roche) and ELISA were used to select antibodies. Anti-NKp44 (44/8) mAb was prepared by immunizing the mice with NKp44-Ig protein, after specific deletion of the IgG1 human Fc fragment. […] All hybridomas were analyzed with 51Cr cytotoxic assays with untreated or acid-treated 721.221 cells as targets, and the specificity of the anti-NKp44 hybridoma was analyzed by ELISA with different fusion proteins. […]

PWASNASWSNKSLDDIW [gp41-C146]
NK cytotoxic activity (CD4+ T cells; single peptides of pool C 5 μg/ml, two days, E/T ratio 40/1 (FIG. 4A)): strongly increased

SWSNKS [NH2-SWSNKS-COOH, SWSNKS]
NK cytotoxic activity (CD4+ T cells; preliminary experiment with the 6-mers peptide): any increased
cell surface expression of NKp44L [1]: any increased

B1: NKp44-Ig fusion protein: NKp44-Ig NCR-Ig fusion protein (protein)
chain: QSKAQVLQSVAGQTLTVRCQYPPTGSLYEKKGWCKEASALVCIRLVTSSKPRTMAWTSRFTIWDDPDAGFFTVTMTDLREEDSGHYWCRIYRPSDNSVSKSVRFYLVVSPASASTQTPWTPRDLVSSQTQTQSCVPPTAGARQAPESPSTIPVPSQPQNSTLRPGPAAPIA
modifications: left off: a dimerising Fc or GST
effect of NCR-Ig fusion protein on #7.1 mAb staining (NKp44L): Inhibition
